Measurements taken from the nanobody polyreactivity screen of Harvey et al. (2022).

Assay: yeast display, Sf9 membrane polyspecificity reagent, FACS + sequencing; frameworks hold sequencing errors
Procedure, shortened: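 Nanobodies from a synthetic yeast display library (Saccharomyces cerevisiae BJ5465), induced 36–48 hours with galactose, were stained 1 hour at 4 °C with 10% biotinylated, detergent-solubilized Sf9 membrane reagent, enriched on streptavidin microbeads, then FACS-sorted. Anti-HA (expression) and streptavidin (reagent binding) fluorescence set low and high (top ~1%) gates. Polyreactivity labels come from the gate of origin. Genes were colony-PCR amplified, MiSeq 2 × 250 sequenced and filtered by CDR length.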

Sequence | polyreactivity (PSR sort gate)
QVQLQESGGGLVQAGGSLRLSCAASGTITVLYKMGWFRQAPGKEREFVASINYGTRTYYADSVKGRFTVSRDSAKNTVYLQMNSLKPEDTAVYYCAAAYRWQDVYRYWGQGTQVTVSS | low polyreactivity
QVQLVESGGGLVQAGGSLRLSCAASGSIFVTNAMGWYRQAPGKERELVAAITRGGNTNYADSVKGRFTISRDNAKNTVYLQMNSLKPEDTAVYYCAADTSYYYVYGYFPGYYYWGLGTQVTVSS | low polyreactivity
QVQLVESVGGLVQAGGSLRLSCAASGRISNDYAMGWYRQAPGKERELVATITFSGGDTYYADSVKGRFTISRDNAKNTVYLQMNSLKPEETAVYYCAASKWRSYSGVWWRLLFDYWGQGTQVTVSS | low polyreactivity
QVQLVESGGGLVQAGGSLRLSCAASGFIFRYYAMGWYRQAPGKERELVAAISWRGGTTYYADSVKGRFTFSRDNAKNTVYLQMNSLKPDDTAVYYCAADWQWDLGPYIYQVEYWGQGTQVTVSS | high polyreactivity
QVQLVESGVGLVQAGGILRLSCAASGSIFWPNAMGWYRHAPGKERELVAGISYSGGRTYYADSVKARFTISRDNEKNTVYLQMNSLKPEDTAVYYCTARRSSGYGYWGQGTHVTVSS | high polyreactivity
QVQLVESGGGLVQAGGSLRLSCAASGRTFRYYSMGWYRQAPGKERELVATITGSGGSTYYADSVKGRFTISRDNAKNTVYLQMNSLKPEDTAVYYCNARKVRYPYRWYDYWGQGTQVTVSS | high polyreactivity
QVQLVESGGGLVQAGGSLRLSCAASGSISSVNVMGWYRQAPGKERELVAAISSGTSTHYADSVKGRFTISRDNAKNTVYLQMNSLKPVDTAVYYCAAYFYRQYLYFLYEYDYWGQGTQVTVSS | low polyreactivity
QVQLVESGGGLVQAGGSLRLSCAASGITFRGYAMGWYRQAPGKERELVASITNTDSTYYADSVKGRFTISRDNAKNTVYLQMNSLKPEDTAVYYCAARRGRKYGYWGQGTQVTVSS | high polyreactivity
QVQLVESGGGLVQAGGSLRLICAASGRTFDHNAMGWYRQAPGKERELVAAITWSGGITDYADSVKRPFTISRDNAKNTVYLQMNSLKPEDTAVWGQGTQVTVSS | low polyreactivity
QVQLVESGRGLVQAGGSLRLSCAASGRIFSVNTMGWYRQAPGKERELVAGITGGGSTNYADSVKGRFTISRDNAKNTVYLQMNSLKPEDTAVYYCAAGWRSGFDYWGQGTQVTVSS | high polyreactivity
QVQLVESGGGLVQAGGSLRLSCAASGNTFYRNAMGWYRQAPGKERELVAGISNGGSTNYEDSVKGRFTISRDNAKNSVYLQMNSLKPEDTAVYYFAKDEPKVSRAFDYWGQGTQVNVSS | low polyreactivity
QVQLVESGGGLVQAGGSLRLSCAASGSIFGYYTMGWYRQAPGKERELVAAISRRGGSTYYADSVKGRFTISRDNAKKTVYLQMNSLKPEDTAVYYCAADVARSRHFEMDYWGQGTQVTVSS | high polyreactivity
QVQLVESGGGLVQAGGSLRLSCAASGGTFTFYAMGWYRQATGKERELVATINWSGGSTYYADSVKGRFTISRDNAKNTVYLQMNSLKPEDTAVYYCNAAWPYKSVEYWGQGTQVTVSS | low polyreactivity
QVQLVESGGGLVQAGGSLRLSCAASGSIFSHYAMGWYRQAPGKERELVAAISRSGGSTYYADSVKGRFTISRDNAKNTVYLQMNSLKPEDTAVYYCAKEGDSGYWFDYWGQGTQVTVSS | low polyreactivity
QVQLVESGGGLVQAGGSLRLSCAASGGILGWSAMGWSRQAPGKERELVAAIRDSGGSTYYADSVKGRFTIARDNAKKTVYLQMNSLKPEDTAVYYCAAYYIASRSTRYYYWGQGTQVTVSS | high polyreactivity
QVQLVESGGGLVQAGGSLRLSCAASGSTFRYYDRGWYRQAPGKERELVAAITTSGDDTYYADSVKRRFTISRDNAKTTVYLQMNSLKPEDTAVYYCAADGYGGHKYELESWGQGTQVTVSS | low polyreactivity

Sequence | polyreactivity (PSR sort gate)
QVQLVESGGGLVQAGGSLRLSCAASGITFSKYAMGWYRQAPGKERELVAAISQRGGSKYYADSVKGRFTISRDNAKNTVYLQMNSLKPEDTAVYYCNAEFYWSIIAYEYWGQGTQVTVSS | high polyreactivity
QVQLVESGGGLVQAGGSLRLSCAASGSTFATNTLGWYRQAPGKERELVAAISRGTSTKYADSVKGRFTISRDNAKNTVYLQMTCLKPEDTAVSYCNAVSRDKSLYDYWGQGTQVTVSS | high polyreactivity
QVQLVESGGGLVQAGGSLRLSCAASVNIFSFYAMGWNRQAPGKERELVAAIIWSGGDTYYADSVKGRFTISLDNAKNTVYLQMNSLKPEDTAVYYCAAEYYYQYYPGGYDYWGQGSQVTVSS | high polyreactivity
QVQLVESGGGLVQAGGSLRLSCAASGRTFDYNAMGWYRPAPGKERELVAAISRSGGSTYYADSVKGRFTISRDNAKNTVYLQMNRLKPEDTAVYYCAADNYYLFALYEYGYWGQGTQVTVSS | high polyreactivity
QVQLVESGGGLVQAGGSLRLSCAASGRIFVPYVMGWYRQAPGKERELVASISDSDTSTYYADSVKGRFTISRDNAKNTVDLQMNSLKPEDTAVYYCNVDYWGQGTQVTVSS | low polyreactivity
QVQLVESGAGLVQAGGSLRLSCAASGSTFCRYVAMGWYRQAPGKERELVAAISVSDGDTYYADSVKGRFTISRDNAKNTVYLQMNSLKPEDTAVYYCAAESFYGYDYWGQGTQVTVSS | high polyreactivity
QVQLVESGGGVVQAGGSLRLSCAASGSTIYRYAMGWYRQAPGKEREFVPAITRTTARTYYADSVKGRFTFSRDNAKNTVYLQMNSLKPEDTAVYYCAADLYSWTWSGFRQYDSWGQGTQVTVSS | high polyreactivity
QVQLVESGGGLVQAGGSLRLSCAASGRTFRSNAMGWYRQAPGKERELVAAISKRGASTYYADSVKGRFTISRDNAKNTVYLQMNSLKPEVTAVYYCNTGAAKHAYDYWGQGTQVTVSS | high polyreactivity
QVQLVESGGGLVQAGGSLRLSCAASGRIFRYYAMGWYRQAPGKERELVAAIRWTAGSTYYADSVKGRFTISRDIAKNTVYLQMNSLKPEDTAVYYCATDVWKYGRYEYWGQGTQVTVSS | low polyreactivity
QVQLVESGGGLVQAGGSLRLTCAASGRILLVNAMGWSRQAPGKERELVAAITSGGSTNYADSVKGRFTISRDNAKNTVYFQMNSLKPEDTAVYFCAATITLYRSRGRYGYWGQGTQVTASS | high polyreactivity
QVQLVESGGGLVQAGGSLRLSCAASGLTFDYYAMGWYRQAPGKERELVAAITSSGGRTYYADSVKGRFTISRDNPNKTVYLQMNSLKPEDTAVYYCAADPYSVYGGDYWGQGTQVTVSS | low polyreactivity
QVQLVESGGGLVQAGGSLRLSCAASGSTFRYYAMGWYRQAPGKERELVAAITQSGGITYYADSVKGRFTISRDNAKNTVYLQMNSLKPEDTAVYYCAKRYYVDYDYWGQGTQVTVSS | low polyreactivity
QVQLVESGGGLVQAGGSLRLSCAASGSTFFIYAMGRYRQAPGEERELVAAITSGGTYADSVKGRFTISRDNAKNTVYLQMNSLKPVDTAVYYCNAGNNVVVDYDYWGQGTQVTVSS | low polyreactivity
QVQLVESGGGLVHAGGRLRLSCDASGSLFFWNTMGWYRQAPGKQRQLVAAITVSGGRTYYADSVKGRFTISRDNAKNSFYLQMYSLKPEDTAVYYCAADPYRLYGYASYTYWGQGTQVTVSS | high polyreactivity
QVQLVESGGGLVQAGGSLRLSCAASGFIFLPNDMGWYRQAPGKEREFVAAIDWSGGSTYYADSVKGRFTISRDNAKNTVYLQMNSLKPEDTAVYYCNAEGRRVGFRIDYDYWGQGTQVTVSS | low polyreactivity
QVQLVESGAGLVQAGVSLRLSCAPSGFTFTGYAMGWYRQSPGKERELVASISKSDGSTYYAESVKGRFTISRDNAKNTVYLQMNSLKPEDTAVFYCAADANTRGSKGRLTHYDYWGQGSQVTVSS | low polyreactivity
